Entries after “also recorded” stand apart in the source; their conditions may differ.
Tests used:
[1] = tested on: MSCs; assay: Messenger RNA decay assay in MSCs after actinomycin D; format: cell-based, mouse
Procedure: FIGS. 8A and 8B. IL-17A prevented the decay of iNOS mRNA, (FIG. 8A) the iNOS mRNA stability was measured at different time points after actinomycin D treatment in IFNγ+TNFα and IFNγ+TNFα+IL-17A treatment groups. (FIG. 8B) iNOS expression enhancing effect of IL-17A at different times after IFNγ and TNFα treatment.
FIGS. 13A and 13B. Wild-type (FIG. 13A) or […] (FIG. 13B) were treated with IFNγ and TNFα, with or without IL-17A (all cytokines supplemented at 10 ng/ml), for 6 hr, and then actinomycin D (5 μg/ml) was added to stop transcription. At the indicated time points, mRNA levels were assayed by quantitative RT-PCR, taking the expression level at the time of actinomycin.D addition as 100%. mRNA expression values are means±SD of three wells from a representative of three independent experiments.
Messenger RNA decay assays-Messenger RNA decay assays were performed essentially. MSCs were incubated with cytokine combinations for 6 hr. Actinomycin D (Act.D) was added into the medium at a final concentration of 5 μg/ml to stop transcription. At various time points after addition of Act.D, cells were harvested for extraction of total RNA.
Levels of iNOS, CXCL1, CCL2, CXCL10 and IL-6 mRNAs were measured at each time point by quantitative RT-PCR and normalized to levels of β-actin mRNA. Percentages of mRNA remaining for each time point were plotted versus time after Act.D addition. First order decay constants, k, were determined by nonlinear regression. The associated mRNA half-lives, t1/2, were calculated with the equation t1/2=ln2/k.

[2] = tested on: CD4+ T cell blasts; assay: T cell blast proliferation in co-culture with MSCs (3H-thymidine incorporation); format: cell-based, mouse
Procedure: FIG. 1. is a graph showing that immunosuppression by MSCs is induced by proinflammatory cytokines. Cloned MSCs were supplemented with the indicated combinations of recombinant cytokines (20 ng/ml each) for 8 hours, then co-cultured with CD4+ T cell blasts at a 1:20 ratio (MSC:T cells), and proliferation assessed after an additional 8 hours. Values represent means±SD of five wells from a representative of three experiments with different clones. * p<0.001.
FIGS. 9A, 9B, 9C, 9D, 9E, 9F and 9G. (FIG. 9A). Cloned MSCs were first treated with the indicated combinations of recombinant cytokines IFNγ, TNFα, IL-17A (2 ng/ml each) for 12 hr, then cocultured with CD4^+ T cell blasts at a 1:20 ratio (MSC:T cells), and proliferation was assessed by 3H-thymidine incorporation after an additional 12 hr. (FIG. 9B). The mRNA expression of IL-17 receptor family members in MSCs or Raw 264.7 (Macrophages) were examined by RT-PCR. NC: No RT. (FIG. 9C). Surface expression of IL-17RA was detected by immunofluoresence or flow cytometry in cloned MSCs. (FIGS. 9D and 9E). MSCs were first treated with IFNγ and TNFα with or without IL-17A (10 ng/ml), IFNγ and TNFα were supplemented at different cytokine concentrations, for 12 hr, and then cocultured with CD4^+ T cell blasts (FIG. 9D) or T cell hybridoma A1.1 cells (FIG. 9E) at a ratio of 1:20 for 12 hr. T cell proliferation was measured by 3H-Tdr incorporation. (FIG. 9F). MSCs were first treated with IFNγ and TNFα (2 ng/ml) with graded concentrations of IL-17A, for 12 hr, and then cocultured with T cell hybridoma A1.1 cells at a ratio of 1:10 for 12 hr. T cell proliferation was measured by 3H-thymidine incorporation. (FIG. 9G). MSCs were cocultured with fresh C57BL/6 splenocytes plus anti-CD3, anti-CD28, and antibodies against IL-17A, at a 1:20 or 1:40 ratio (MSCs:splenocytes), for 48 hr, and then cell proliferation was assessed by 3H-thymidine incorporation. Proliferation values represent means±SEM of three wells from a representative of three experiments.
T cell blasts were generated from CD4^+ T cells purified by negative selection with […] T cell subset isolation kits (R&D Systems). Cells (1×10^6 cells/ml) were activated by plastic-bound anti-CD3 and soluble anti-CD 28 for 48 hours, then cultured with IL-2 (200 U/ml) alone for 48 hours. All T cell cultures were maintained in RPMI-1640 medium supplemented with 10% heat-inactivated FBS, 2 mM glutamine, 100 U/ml penicillin, 100 μ·g/ml streptomycin, and […] (complete medium).
Since most reported studies of immunosuppression by MSCs are based on their effects on T cell proliferation and cytokine production, the effect of MSCs was first examined on the IL-2-driven proliferation of T cell blasts. Fresh CD4^+ T cell blasts were generated from splenocytes by activation with anti-CD3 followed by expansion with IL-2 for several days (Devadas, et al. (2006) Immunity 25:237-247; Radvanyi, et al. (1996) Cell Immunol. 170:260-273). T cell blasts were added at a 1:20 ratio (MSC:T cells) along with IL-2 (200 U/ml). Cell proliferation was assessed by ^3H-Tdr incorporation after 8 hours. […] MSCs also had no effect on the proliferation of T hybridoma A1.1 cells. These T cells blasts and T hybridoma cells, however, produce no cytokines unless reactivated through the TCR (Fotedar, et al. (1985) J. Immunol. 135(5):3028-33). Thus, in the absence of T cell cytokines, MSCs were unable to suppress T cell proliferation.
The effect of IFNγ was then tested directly by adding isolated recombinant IFNγ (20 ng/ml) instead of activated splenocyte supernatant to the mixed co-cultures of MSC+ T cell blasts or MSC+A1.1 cells. […] Therefore, induction of the immunosuppressive function of MSCs by anti-CD3-activated splenocyte supernatant may be due to IFNγ acting in concert with either TNFα; IL-1α; or IL-1β on the MSCs. […]

B1: IL-17A: recombinant mouse interleukin 17A (protein)
chain: AAIIPQSSACPNTEAKDFLQNVKVNLKVFNSLGAKVSSRRPSDYLNRSTSPWTLHRNEDPDRYPSVIWEAQCRHQRCVNAEGKLDHHMNSVLIQQEILVLKREPESCPFTFRVEKMLVGVGCTCVASIVRQAA
[1]; added to IFNγ+TNFα
  half-lives of iNOS and IL-6 mRNAs in AUF1 knockout MSCs: no effect
  stabilization of CXCL1 mRNA in AUF1 knockout MSCs: at least twofold
  stabilization of iNOS, IL-6, and CXCL1 mRNAs in wild-type MSCs: twofold stabilization
[1]; supplement to IFNγ+TNFα, within the time points tested
  iNOS mRNA stability: completely protected
[2]; 2 ng/ml each, 12 hr, then 1:20 MSC:T cells
  T cell proliferation after MSC treatment with low-concentration cytokines: cannot induce immunosuppression; also recorded: markedly enhanced
[2]; 10 ng/ml IL-17A, CD4+ T cell blasts or A1.1
  IFNγ and TNFα concentrations (as low as) at which IL-17A enhances the immunosuppressive effect of MSCs: 1 to 2 ng/mL
[2]; IFNγ and TNFα 10-20 ng/ml
  immunosuppression at higher concentrations of IFNγ and TNFα: still improved immunosuppression
